Legend:
[1] = Remaining lysine decarboxylase activity of cell free extract after incubation at 68° C.; assay type: biochemical, Escherichia coli
Method: (§1) The activity of the lysine decarboxylase was measured according to the method described in JP patent application laid-open Publication No. 2008-193899. 0.1 mL of a microbial cell suspension or a treated product thereof was added to 1 mL of a reaction solution containing 100 mM MES-NaOH buffer (pH 6.0), 10 g/L (55 mM) of L-lysine hydrochloride and 26.5 mg/L (0.1 mM) of PLP, and then the reaction mixture was incubated at 37° C. for 5 minutes. 0.1 mL of the reaction solution was collected and added to 1 mL of 1% (v/v) phosphoric acid to stop the reaction. Lysine and 1,5-PD were quantified with HPLC by a post column OPA method (S. R. Vale and M. B. Gloria, Journal Of AOAC International (1997) vol. 80, p. 1006-1012) or a method of quantifying remaining L-lysine using a biosensor BF-5 (Oji Scientific Instruments Co., Ltd.). One unit was defined as an activity that formed 1 μmol of 1,5-PD in one minute under this condition.
A combination mutant for increasing the amount of expressed CadA was constructed using QuikChange™ Site-Directed Mutagenesis Kit (Stratagene). A mutation to alter from Val (GTT) to Ile ([…]) at position 3 was introduced using the plasmid pCadA233 as the template and using oligonucleotides v3i_r (5′-cat gtg att caa tat tgc aat aat gtt cat cta cat tcc tcc tta cg-3′(SEQ ID NO:11)) and v3i_f (5′-cgt aag gag gaa tgt aga tga aca tta ttg caa tat tga atc aca tg-3′ (SEQ ID NO:12)) as primers according to a protocol. The nucleotide sequence of the constructed plasmid was determined by the method described in Example 2 to confirm that the objective mutation had been introduced, and this plasmid was designated as pCadA234. Microbial cells of E. coli JM109/pCadA234 expressing this double mutant CadA234 at high level were cultured to prepare a cell free extract in the same manner as in Example 2. The activity in this cell free extract was 663 U/mL, which was almost the same as that from the strain expressing the wild-type enzyme.
The resulting cell free extract was diluted to 20 fold with 0.1 M MES-NaOH buffer (pH 6.0). Each crude enzyme solution was incubated at 68° C., which is a higher temperature than in Example 2, and the remaining activity was measured over time. After incubation at 68° C. for one hour, the wild-type enzyme was inactivated to 27% while the single mutant enzymes V3I and A590T were inactivated to 47% and 27%, respectively. On the contrary, the double mutant enzyme retained 70% of its activity, and even after 3 hours, still retained about 60% of its activity (FIG. 1). Therefore, it was shown that the double mutation has a synergistic effect and further improved the thermal stability.

[2] = Enzyme activity of culture media of expressing strains after heat treatment with or without disruption; assay type: cell-based, Escherichia coli
Method: as §1
Microbial cells of E. coli JM109/pCadA220 and E. coli JM109/pCadA234 carrying the wild-type CadA and the double mutant CadA, respectively were cultured in the LB medium. Subsequently, 15 mL of the cultured medium was inoculated into 300 mL of culture medium (25 g/L of glucose, 5 g/L of ammonium sulfate, 2 g/L of potassium phosphate, 1 g/L of magnesium sulfate heptahydrate, 20 mg/L of iron sulfate heptahydrate, 20 mg/L of manganese sulfate pentahydrate, 1 mg/L of thiamine hydrochloride, 0.45 g/L of hydrolyzed soybeans, pH 7.0) in a 500 mL jar fermenter (manufactured by ABLE & Biott Co., Ltd.), and cultured with ventilation at 300 mL/minute while stirring at 250 rpm at 30° C. for 12 hours. Culture media containing 10.1 g/L and 10.9 g/L of microbial cells in terms of dry microbial cell weight were able to be prepared for E. coli JM109/pCadA220 and E. coli JM109/pCadA234, respectively. For the purpose of improving substrate permeability, the pH value was adjusted to 5.5, and subsequently the culture media were incubated at 55° C. and 60° C., and then the culture media were directly used to measure the activity after the incubation.
Since the lysine decarboxylase is expressed within the microbial cell, when the microbial cell is used directly, lysine cannot react with the lysine decarboxylase, and the efficiency of a decarboxylation reaction is very poor. […] However, the wild-type enzyme was inactivated during the incubation when heated excessively. The mutated enzyme having the improved thermal stability could stably keep its activity even when using conditions where the wild-type enzyme was easily inactivated as shown in Example 2. When the microbial cells carrying such a mutated enzyme were used, efficient treatment in a short period of time was possible. This has shown that the mutated enzyme not only can act at higher temperature upon reaction but also can be easily used when the microbial cell is directly used.

[3] = Inhibition of enzyme activity by iron ion and effect of chelating agent EDTA; assay type: biochemical, Escherichia coli
Method: as §1
Cell free extracts were prepared from the strain expressing wild-type CadA and the strain overexpressing double mutant CadA, respectively in the same manner as in Examples 2 and 3. Using the resulting cell free extract, iron sulfate heptahydrate (Nacalai Tesque Inc.) at a final concentration of […] (2 mM) was added to the composition shown in Example 1, and an inhibitory effect was measured. […]

[4] = Lysine decarboxylation reaction (1,5-PD production) in the presence of chelating agent; design: species or system Escherichia coli; details: 0.1 mM iron sulfate, 0.3 mM EDTA added, 37° C., 16 hours
Method: In the same manner as in Example 4, microbial cells of E. coli JM109/pCadA234 (double mutant expressing CadA at high level) were cultured, the cultured medium was prepared, and after completing the cultivation, incubated at 60° C. for one hour. The activity after incubation was measured, and the cultured medium was diluted so that the enzyme activity became 380 units/mL. 30 mL of this cultured medium containing the enzyme was added to 270 mL of a reaction solution containing 250 g/L of lysine hydrochloride (Ajinomoto Co., Ltd.), 26.5 mg/L of pyridoxal phosphate, 27.8 mg/L (0.1 mM) of iron sulfate heptahydrate and 111.6 mg/L (0.3 mM) of disodium dihydrogen ethylenediaminetetraacetate (EDTA), and the mixture was reacted at 37° C. for 16 hours. No EDTA was added in a control reaction. The pH value was 5.3 when the reaction was started, and elevated with progress of the reaction, but was kept at 7.0 by adding 30% (v/v) sulfuric acid when the pH value reached 7.0.
On the other hand, when EDTA was added, the inhibition of the reaction is restored and lysine was completely consumed. When EDTA was added, 135 g/L of 1,5-PD was formed and lysine was converted at a yield of 98%. […]

[5] = Incubation at 55° C. for 1 h, Disruption
[6] = Incubation at 55° C. for 1 h, physical treatment None
[7] = Incubation at 55° C. for 3 h, Disruption
[8] = Incubation at 55° C. for 3 h, physical treatment None
[9] = Incubation at 60° C. for 1 h, Disruption
[10] = Incubation at 60° C. for 1 h, physical treatment None
[11] = No heat treatment, physical treatment None

B1: pCadA234: lysine decarboxylase (CadA) V3I/A590T double mutant (protein, UniProt P0A9H3 1-715, looked up, variant V3I A590T)
Inducible lysine decarboxylase: MNIIAILNHMGVYFKEEPIRELHRALERLNFQIVYPNDRDDLLKLIENNARLCGVIFDWDKYNLELCEEISKMNENLPLYAFANTYSTLDVSLNDLRLQISFFEYALGAAEDIANKIKQTTDEYINTILPPLTKALFKYVREGKYTFCTPGHMGGTAFQKSPVGSLFYDFFGPNTMKSDISISVSELGSLLDHSGPHKEAEQYIARVFNADRSYMVTNGTSTANKIVGMYSAPAGSTILIDRNCHKSLTHLMMMSDVTPIYFRPTRNAYGILGGIPQSEFQHATIAKRVKETPNATWPVHAVITNSTYDGLLYNTDFIKKTLDVKSIHFDSAWVPYTNFSPIYEGKCGMSGGRVEGKVIYETQSTHKLLAAFSQASMIHVKGDVNEETFNEAYMMHTTTSPHYGIVASTETAAAMMKGNAGKRLINGSIERAIKFRKEIKRLRTESDGWFFDVWQPDHIDTTECWPLRSDSTWHGFKNIDNEHMYLDPIKVTLLTPGMEKDGTMSDFGIPASIVAKYLDEHGIVVEKTGPYNLLFLFSIGIDKTKALSLLRALTDFKRAFDLNLRVKNMLPSLYREDPEFYENMRIQELTQNIHKLIVHHNLPDLMYRAFEVLPTMVMTPYAAFQKELHGMTEEVYLDEMVGRINANMILPYPPGVPLVMPGEMITEESRPVLEFLQMLCEIGAHYPGFETDIHGAYRQADGRYTVKVLKEESKK
In the case of B1, the “remaining activity after incubation at 68° C. for one hour” value ([1]; 68° C., 1 hour, FIG. 1) is reported as 70%, the “remaining activity after incubation at 68° C. for 3 hours” value ([1]; 68° C., 3 hours, FIG. 1) is reported as “about 60%” and the “activity in cell free extract” value ([1]; before incubation) is reported as 663 U/mL. It also gave an Enzyme activity [2, 5] of 758 units/ml, a Relative activity [2, 5] of 98.4% and an Enzyme activity [2, 6] of 475 units/ml. For the same molecule, the Relative activity [2, 6] was 61.7%, the Enzyme activity [2, 7] was 659 units/ml and the Relative activity [2, 7] was 85.5%. The Enzyme activity [2, 8] was 601 units/ml, the Relative activity [2, 8] was 78.0% and the Enzyme activity [2, 9] was 754 units/ml. For the same molecule, the Relative activity [2, 9] was 97.9%, the Enzyme activity [2, 10] was 426 units/ml and the Relative activity [2, 10] was 55.3%. For the same molecule, the Enzyme activity ([2]; No heat treatment, Disruption) was 770 units/ml, the Relative activity ([2]; No heat treatment, Disruption) was 100% and the Enzyme activity [2, 11] was 16.0 units/ml. The Relative activity [2, 11] was 2.1%, the “activity with 2 mM iron ion, of the activity when no iron ion was added” value ([3]; 2 mM iron ion, no EDTA) was 64.7% and the Enzyme activity ([3]; FeSO4 2 mM, EDTA 0.5 mM) was 677 units/ml. The Enzyme activity ([3]; FeSO4 2 mM, EDTA 1 mM) was 680 units/ml, the Enzyme activity ([3]; FeSO4 2 mM, EDTA 2 mM) was 677 units/ml and the Enzyme activity ([3]; FeSO4 2 mM, EDTA 4 mM) was 672 units/ml. The Enzyme activity ([3]; FeSO4 2 mM, EDTA 5 mM) was 669 units/ml, the Enzyme activity ([3]; FeSO4 2 mM, EDTA None) was 443 units/ml and the Enzyme activity ([3]; FeSO4 None, EDTA 2 mM) was 677 units/ml. The Enzyme activity ([3]; FeSO4 None, EDTA None) was 685 units/ml and the “yield of lysine conversion” value [4] was 98%.

— patent US10358638B2, “Method of producing 1,5-pentadiamine using lysine decarboxylase mutant having improved thermal stability” (AJINOMOTO CO., INC., priority 2014, dated 2019)
